Data as given in patent US20030232009A1 (Amgen, published 2003).
Changes are numbered by the printed parent chain. Blank lines part the entries; values can stand above or below the binder they belong to.

Assays:
[1] = target: T1, chimeric CD45RB (full length human CD45RB with the macaque RB exon) transiently expressed in CHO cells (human; macaque, UniProt P08575-9 26-33; P08575-9 81-1192); test: transiently transfected CHO cells
T1 construct: whole chimeric protein on CHO cells; also called Macaque CD45RB CHO
T1 sequence: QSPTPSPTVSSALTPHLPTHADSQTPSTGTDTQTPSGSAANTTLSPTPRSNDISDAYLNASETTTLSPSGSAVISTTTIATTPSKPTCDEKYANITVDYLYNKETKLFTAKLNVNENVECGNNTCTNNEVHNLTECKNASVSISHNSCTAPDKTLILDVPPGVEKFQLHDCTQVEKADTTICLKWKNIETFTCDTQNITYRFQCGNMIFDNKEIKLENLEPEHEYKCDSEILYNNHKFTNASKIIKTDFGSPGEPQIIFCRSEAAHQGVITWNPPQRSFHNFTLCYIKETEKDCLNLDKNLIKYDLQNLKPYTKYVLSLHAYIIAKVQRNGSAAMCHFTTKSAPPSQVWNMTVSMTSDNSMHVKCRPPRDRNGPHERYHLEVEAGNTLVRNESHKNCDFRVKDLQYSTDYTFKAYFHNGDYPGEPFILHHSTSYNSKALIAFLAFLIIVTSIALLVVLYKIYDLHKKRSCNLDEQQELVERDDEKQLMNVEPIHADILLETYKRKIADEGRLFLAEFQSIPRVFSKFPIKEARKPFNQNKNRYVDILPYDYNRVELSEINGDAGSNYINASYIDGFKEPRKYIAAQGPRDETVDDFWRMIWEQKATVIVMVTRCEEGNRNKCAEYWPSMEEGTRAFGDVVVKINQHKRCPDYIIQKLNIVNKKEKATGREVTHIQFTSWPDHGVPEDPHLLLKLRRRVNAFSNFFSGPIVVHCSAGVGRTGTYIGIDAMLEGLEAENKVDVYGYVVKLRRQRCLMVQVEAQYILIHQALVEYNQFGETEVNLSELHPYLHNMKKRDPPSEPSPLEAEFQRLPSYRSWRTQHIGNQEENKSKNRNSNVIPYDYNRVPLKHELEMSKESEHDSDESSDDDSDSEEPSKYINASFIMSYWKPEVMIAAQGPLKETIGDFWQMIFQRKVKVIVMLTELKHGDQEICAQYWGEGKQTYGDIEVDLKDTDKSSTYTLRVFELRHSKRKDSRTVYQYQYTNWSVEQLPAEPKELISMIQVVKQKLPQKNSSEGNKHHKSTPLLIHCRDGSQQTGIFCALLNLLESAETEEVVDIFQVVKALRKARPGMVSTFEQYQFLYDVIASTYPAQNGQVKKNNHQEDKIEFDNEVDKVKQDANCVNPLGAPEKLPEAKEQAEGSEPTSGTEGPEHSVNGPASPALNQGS

[2] = target: T2, Human 20.2 peptide (human); test: recombinant antibody on peptide
T2 construct: synthetic peptide from the RB exon
T2 peptide: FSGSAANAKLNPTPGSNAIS

[3] = target: T3, Macaque 46 mer peptide (RB exon of macaque CD45RB) (macaque); test: recombinant antibody on peptide
T3 construct: synthetic peptide
T3 peptide: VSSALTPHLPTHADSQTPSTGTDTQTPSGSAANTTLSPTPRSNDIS

[4] = target: T4, Human 46 mer peptide (RB exon of human CD45) (human); test: recombinant antibody on peptide
T4 construct: synthetic peptide; also called CD45RB 46 mer
T4 peptide: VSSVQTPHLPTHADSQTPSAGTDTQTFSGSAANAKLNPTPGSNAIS

[5] = target: T5, Human 18 mer peptide (human); test: recombinant antibody on peptide
T5 construct: synthetic peptide from the RB exon
T5 peptide: VSSVQTPHLPTHADSQTPC

[6] = target: T6, Human 20.1 peptide (human); test: recombinant antibody on peptide
T6 construct: synthetic peptide from the RB exon
T6 peptide: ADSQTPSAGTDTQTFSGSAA

B1: AB-CD45RB-XG2-556 (antibody, human IgG2, V domains shown)
VH: QVQLQESGPGLVKPSETLSLTCTVSGGSISGYYWSWIRQPAGKGLEWIGRIHTTGKTAYNPSLKSRVIMSVDTSKNLFSLKLTSVTAADTAVYYCARDYDFLTGYFDYWGQGTLVTVSS
VL: DVVMTQSPLSLPVTLGQPASISCRSSQSLVYSDGNTYLNWFQQRPGHSPRRLIYKVSNWDSGVPDRFSGSGSGTDFTLKISRVEAEDVGIYYCMQGTHWPPTFGQGTRVEIK
notes: recombinant human IgG2 kappa; also called sc556
binding result [1]: no binding
binding result [2]: no binding
binding result [3]: no binding
binding result [4]: no binding

B2: AB-CD45RB-XG2-569 (antibody, human IgG2, V domains shown)
VH: B1 VH with P61S
VL: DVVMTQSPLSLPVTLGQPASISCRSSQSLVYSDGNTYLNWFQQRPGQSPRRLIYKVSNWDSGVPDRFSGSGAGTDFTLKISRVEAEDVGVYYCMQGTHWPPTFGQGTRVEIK
notes: recombinant human IgG2 kappa; also called sc569
binding result [2]: no binding

B3: AB-CD45RB-XG2-275 (antibody, human IgG2, V domains shown)
VH: QVQLVESGGGVVQPGRSLRLSCAASGFTFSKFGMHWVRQAPDKGLEWVAVIWYDGTYKYYADSVKGRFTISRDNSKNTLYLQMNSLRAEDTAVYYCARGGGSFDYWGQGTLVTVSS
VL: DIVMTQTPLSLSVTPGQPASISCKSSQSLLHSDGKTFLYWYLQKPGQPPQLLIYEVSNRFSGVPDRFSGSGSGIDFTLKISRVEAEDVGVYYCMQSIQFPITFGQGTRLEIK
notes: recombinant human IgG2 kappa; also called sc275
binding result [2]: no binding

B4: AB-CD45RB-XG2-416 (antibody, human IgG2, V domains shown)
VH: B3 VH with K31R, F32Y, D42G, T56S, Y57N, M83V
VL: B3 VL with S68G, I74T, K112E
notes: recombinant human IgG2 kappa; also called sc416
binding result [2]: no binding

B5: AB-CD45RB-XG2-413 (antibody, human IgG2, V domains shown)
VH: B3 VH with K31S, F32Y, T56S
VL: B3 VL with S32R, I74T
notes: recombinant human IgG2 kappa; also called sc413
binding result [2]: no binding

B6: AB-CD45RB-XG2-324 (antibody, human IgG2, V domains shown)
VH: B3 VH with T56S, V93A
VL: B3 VL
notes: recombinant human IgG2 kappa; also called sc324; 39E11 (sc324)
binding result [2]: no binding

B7: AB-CD45RB-XG2-636 (antibody, human IgG2, V domains shown)
VH: QVHLVESGGGLVKPGGSLRLSCAASGFTFINYYMTWIRQAPGKGLEWVSYISLSGSTIYYADSVKGRFTISRDNAKNSLFLQMNSLRAEDTAVYYCARRAATVTTFDYWGQGTLVTVSS
VL: EIVMTQSPATLSVSPGERATLSCRASQSVRSNLAWSQQKPGQAPRLLIYGASTRATGIPARFSGSGSGTEFTLTISSLQSEDFAVYYCQQYNNWPLTFGGGTKVEIK
notes: recombinant human IgG2 kappa; also called sc636
binding result [2]: no binding
binding result [5]: no binding
binding result [6]: no binding
binding result [3]: no binding
binding result [4]: no binding

B10: AB-CD45RB-XG2-525 (antibody, human IgG2, V domains shown)
VH: QVQLVESGGGVVQPGRSLRVSCAASGFTFSNYGMHWVRQAPGKGLEWVAVIWYDGSKKFYADSVKGRFTISRDNSQNTLSLQMSSLRAEDTAVYYCARGGGDFDFWGQGTLVTVSS
VL: KIVMTQSPATLSVSPGERATLSCRASQSLSGSYLAWYQQRPGQAPRLLIYGASTRATGIPARFSGSGSGTEFTLTISSLQSEDFAVYYCQQYNKWPPLTFGGGTKVEIK
notes: recombinant human IgG2 kappa; also called sc525
binding result [1]: no binding
binding result [2]: no binding
binding result [5]: no binding
binding result [6]: no binding
binding result [3]: no binding

B12: AB-CD45RB-XG2-593 (antibody, human IgG2, V domains shown)
VH: B10 VH
VL: B10 VL with L29V, S32N, N93G
notes: recombinant human IgG2 kappa; also called sc593
binding result [1]: no binding
binding result [2]: no binding
binding result [5]: no binding
binding result [6]: no binding
binding result [3]: no binding

Further lines, results first:

binding result [2]: no binding
binding result [5]: no binding
binding result [6]: no binding
binding result [3]: no binding
binding result [4]: no binding
B8: AB-CD45RB-XG2-662 (antibody, human IgG2, V domains shown)
VH: QVQLVESGGDLVKPGGSLRLSCAASGFSFSGYYLSWIRQAPGKGLEWVSYISLSGSFIKYADSVKGRFTISRDNAKKTLHLQMNSLRAEDTAVYYCARRTGTTTVFDYWGQGTLVTVSS
VL: B7 VL with I2V, R30N, S36Y, K39R, A55V
notes: recombinant human IgG2 kappa; also called sc662

binding result [2]: no binding
B9: AB-CD45RB-XG2-475 (antibody, human IgG2, V domains shown)
VH: AVQLLESGGGLIQPGGSLRLSCAASGFTFSSYAMSWVRQAPGKGLEWVSAISGSGGSTFYADSVRGRFTISRDNSKNTLYLQMNSLRVEDTAVYYCAKEVMGPIFFDYWGQGTLVTVSS
VL: EIVLTQSPGTLSLSPGERATLSCRASQSIISSALAWYQQKPGQAPRLLIYGASSRATGIPDRFSGSGSGTDFTLTISRLEPEDFAVYHCQQYGSTPLTFGGGTKVEIK
notes: recombinant human IgG2 kappa; also called sc475

binding result [1]: no binding
binding result [2]: no binding
binding result [5]: no binding
binding result [6]: no binding
binding result [3]: no binding
B11: AB-CD45RB-XG2-606 (antibody, human IgG2, V domains shown)
VH: B10 VH with V5A, V20L, V50I, Q76N, S80Y, Q82H, M83V, S84N, A88V, F103I
VL: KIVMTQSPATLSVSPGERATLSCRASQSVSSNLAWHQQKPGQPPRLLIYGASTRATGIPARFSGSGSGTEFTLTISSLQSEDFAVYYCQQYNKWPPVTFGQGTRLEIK
notes: recombinant human IgG2 kappa; also called sc606

binding result [1]: no binding
binding result [2]: no binding
binding result [5]: no binding
binding result [6]: no binding
binding result [3]: no binding
B13: AB-CD45RB-XG2-439 (antibody, human IgG2, V domains shown)
VH: B10 VH with V20L, Q76K, T78M, L79Q, S80Y, S84D, F105Y, T110I
VL: B10 VL with K1E, S28N, S32K, R40K, R46S, L47R, A52T, I59V, F84S, K94N
notes: recombinant human IgG2 kappa; also called sc439

binding result [1]: no binding
binding result [2]: no binding
binding result [5]: no binding
binding result [6]: no binding
binding result [3]: no binding
B14: AB-CD45RB-XG2-026 (antibody, human IgG2, V domains shown)
VH: B3 VH with K31N, F32Y, D42G, T56S, Y57N, S102D
VL: B10 VL with K1E, A19V, S28T, L29I, R40K, S53F, K94N, K105R
notes: recombinant human IgG2 kappa; also called sc026; 1G10 (sc026)

binding result [1]: no binding
binding result [2]: no binding
binding result [5]: no binding
binding result [6]: no binding
binding result [3]: no binding
B15: AB-CD45RB-XG2-446 (antibody, human IgG2, V domains shown)
VH: B10 VH with R16K, V20L, S30R, Q76K, S80N, S84N, A97V, F105Y
VL: EIVMTQSPATLSVSLGERATLSCRASQNISGNYLAWYQQRPGQAPRRLIYSASSRATGIPDRFSGSGSGTEFTLTISSLQSEDFAVYYCQQYNNWPPLTFGGGTKVEMK
notes: recombinant human IgG2 kappa; also called sc446

binding result [1]: no binding
binding result [2]: no binding
binding result [5]: no binding
binding result [6]: no binding
binding result [3]: no binding
B16: AB-CD45RB-XG2-487 (antibody, human IgG2, V domains shown)
VH: B10 VH with A23E
VL: B10 VL with L29V, S32N, N93G
notes: recombinant human IgG2 kappa; also called sc487

binding result [1]: no binding
binding result [2]: no binding
binding result [5]: no binding
binding result [6]: no binding
binding result [3]: no binding
B17: AB-CD45RB-XG2-493 (antibody, human IgG2, V domains shown)
VH: B10 VH
VL: B10 VL with A9V, S26C, L29V, N93G
notes: recombinant human IgG2 kappa; also called sc493

binding result [1]: no binding
binding result [2]: no binding
binding result [5]: no binding
B18: AB-CD45RB-XG2-502 (antibody, human IgG2, V domains shown)
VH: B10 VH with G42D
VL: B10 VL with L29V, S32N, Q39R, N93G
notes: recombinant human IgG2 kappa; also called sc502

binding result [1]: no binding
binding result [2]: no binding
binding result [5]: no binding
binding result [6]: no binding
binding result [3]: no binding
B19: AB-CD45RB-XG2-713 (antibody, human IgG2, V domains shown)
VH: B10 VH with V20L, S75F, Q76E, N77K, S80Y, S84N, F105Y
VL: B10 VL with K1E, R40K, G51S, K94N
notes: recombinant human IgG2 kappa; also called sc713
